# Results reported in patent publication US20200282010A1, “IMMUNOGENIC COMPOSITIONS AND USES THEREFOR” (Epiaxis Therapeutics Pty Ltd, priority 2017, published 2020).
# What was measured:
# PKC-β1 = molecular target: T1, PKC-β1 (Homo sapiens, UniProt P05771); test: Nuclear localization of PKC-β1 (Fn/c, immunofluorescence), specificity; format: cell-based; details: MCF7 breast cancer cell line; FIG. 1D
# T1 construct: endogenous in cells; host or cells: MCF7
# Excerpt: (§1) FIG. 1 is a graphical, schematic and photographic representation showing that PKC-θ can be targeted for therapeutic intervention. A) Depicts the strength of binding of recombinant purified His6-PKC-θ to increasing concentrations of different subunits and subunit combinations (α2, α2β1, and β1) of the importin α/β heterodimer nuclear transport receptor using an AlphaScreen® binding assay as described in Wagstaff et al. (2011. Journal of Biomolecular Screening 16 (2):192-200). B-C) Depicts protein structure of PKC-θ indicating binding locations for the PKC-θ peptide inhibitor, PKCθi (RKEIDPPFRPKVK), including the nuclear localization sequence (NLS) of PKC-θ. D) The specificity of PKCθi was examined on cells treated with this peptide inhibitor. Cells were screened with primary antibodies to PKC-θ (T538p), PKC-β2, PKC-β1, PKC-α, PKC-ε and PKC-γ. The nuclear to cytoplasmic fluorescence ratio (Fn/c) using the equation: Fn/c=(Fn−Fb)/(Fc−Fb), where Fn is nuclear fluorescence, Fc is cytoplasmic fluorescence, and Fb is background fluorescence was used to determine the impact on nuclear translocation/localization. […] EC^50 of inhibitors calculated using GraphPad PRISM software. F) The PKC-θ kinase activity was measured using the PKC kinase activity kit from ENZO life sciences and recombinant PKC-θ; C27 is an inhibitor of PKC-θ kinase activity, which is disclosed in Jimenez et al. (2013. […]
# PKC-ε = molecular target: T2, PKC-ε (Homo sapiens, UniProt Q02156); test: Nuclear localization of PKC-ε (Fn/c, immunofluorescence), specificity; format: cell-based; details: MCF7 breast cancer cell line; FIG. 1D
# T2 construct: endogenous in cells; host or cells: MCF7
# T2 sequence (Q02156 1-737): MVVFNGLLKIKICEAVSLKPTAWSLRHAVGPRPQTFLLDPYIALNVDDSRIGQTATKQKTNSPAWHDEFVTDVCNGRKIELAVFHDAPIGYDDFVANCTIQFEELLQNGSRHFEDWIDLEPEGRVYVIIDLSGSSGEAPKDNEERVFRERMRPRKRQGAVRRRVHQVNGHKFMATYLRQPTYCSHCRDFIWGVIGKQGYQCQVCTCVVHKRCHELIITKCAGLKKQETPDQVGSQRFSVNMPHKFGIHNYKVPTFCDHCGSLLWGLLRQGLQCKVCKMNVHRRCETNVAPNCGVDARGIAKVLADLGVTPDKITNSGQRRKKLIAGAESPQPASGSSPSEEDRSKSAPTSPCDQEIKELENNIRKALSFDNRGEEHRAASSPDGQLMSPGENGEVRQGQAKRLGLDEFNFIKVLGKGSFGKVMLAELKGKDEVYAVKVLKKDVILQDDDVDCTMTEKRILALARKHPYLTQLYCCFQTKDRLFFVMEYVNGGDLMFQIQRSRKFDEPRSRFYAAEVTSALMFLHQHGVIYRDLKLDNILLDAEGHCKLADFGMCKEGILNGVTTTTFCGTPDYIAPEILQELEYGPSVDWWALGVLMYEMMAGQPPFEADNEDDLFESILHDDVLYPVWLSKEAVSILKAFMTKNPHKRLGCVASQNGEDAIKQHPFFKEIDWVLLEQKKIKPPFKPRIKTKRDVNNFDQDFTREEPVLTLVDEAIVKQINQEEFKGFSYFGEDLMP
# Excerpt: as §1
# T1 sequence (P05771 whole entry): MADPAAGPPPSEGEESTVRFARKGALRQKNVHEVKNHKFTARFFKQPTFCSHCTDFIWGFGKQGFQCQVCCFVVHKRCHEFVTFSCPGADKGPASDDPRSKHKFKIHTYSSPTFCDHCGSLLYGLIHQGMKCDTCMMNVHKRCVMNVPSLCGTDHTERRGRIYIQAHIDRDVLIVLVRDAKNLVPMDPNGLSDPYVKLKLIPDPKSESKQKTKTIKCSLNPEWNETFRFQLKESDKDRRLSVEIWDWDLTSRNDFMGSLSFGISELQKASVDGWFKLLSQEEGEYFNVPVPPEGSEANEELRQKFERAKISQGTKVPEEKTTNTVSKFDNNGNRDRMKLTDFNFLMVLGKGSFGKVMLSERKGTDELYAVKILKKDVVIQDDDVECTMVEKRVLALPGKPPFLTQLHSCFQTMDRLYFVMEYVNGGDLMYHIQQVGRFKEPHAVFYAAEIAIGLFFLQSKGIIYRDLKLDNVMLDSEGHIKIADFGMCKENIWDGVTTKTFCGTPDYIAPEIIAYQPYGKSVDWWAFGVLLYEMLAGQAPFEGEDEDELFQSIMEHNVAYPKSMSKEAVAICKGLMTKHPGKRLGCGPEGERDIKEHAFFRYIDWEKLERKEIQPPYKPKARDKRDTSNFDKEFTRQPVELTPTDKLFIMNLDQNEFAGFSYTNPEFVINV
sequence,measurement,setting,value
RKEIDPPFRPKVK [PKCθi],nuclear localization of PKC-β1,PKC-β1,no effect
same,nuclear localization of PKC-ε,PKC-ε,no effect
